From patent publication US20220242973A1 (Molecular Partners, published 2022)

Molecular target: T1, Human FAP expressed on the cell surface (WI38, CHO-FAP1.9, U87MG cells) (human, UniProt Q12884 1-760)
T1 construct: whole, on cells; Endogenous on WI38 and U87MG cells; from a human FAP cDNA (OriGene) in CHO-FAP1.9 cells; also called hFAP; FAP+ cells
T1 sequence (looked up): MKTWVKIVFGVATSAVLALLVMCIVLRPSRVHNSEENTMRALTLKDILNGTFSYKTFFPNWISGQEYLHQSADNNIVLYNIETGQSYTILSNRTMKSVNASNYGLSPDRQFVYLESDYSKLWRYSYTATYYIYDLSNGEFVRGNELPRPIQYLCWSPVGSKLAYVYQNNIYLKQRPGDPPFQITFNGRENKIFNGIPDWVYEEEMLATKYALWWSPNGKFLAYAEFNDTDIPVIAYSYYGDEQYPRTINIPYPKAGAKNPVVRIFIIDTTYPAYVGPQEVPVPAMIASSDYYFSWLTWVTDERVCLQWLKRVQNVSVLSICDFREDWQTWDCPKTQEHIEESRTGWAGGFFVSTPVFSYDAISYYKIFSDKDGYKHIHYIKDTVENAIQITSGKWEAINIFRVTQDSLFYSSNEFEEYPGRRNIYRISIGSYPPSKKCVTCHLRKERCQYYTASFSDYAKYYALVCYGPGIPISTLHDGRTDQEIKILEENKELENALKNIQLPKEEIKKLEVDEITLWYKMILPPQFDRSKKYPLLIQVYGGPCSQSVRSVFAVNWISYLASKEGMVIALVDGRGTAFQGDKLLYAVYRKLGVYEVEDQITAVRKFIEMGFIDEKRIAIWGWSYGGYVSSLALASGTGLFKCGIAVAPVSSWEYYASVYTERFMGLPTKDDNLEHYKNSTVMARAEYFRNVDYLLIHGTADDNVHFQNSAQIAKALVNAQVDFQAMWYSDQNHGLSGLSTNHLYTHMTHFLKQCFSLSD
Experiment: FACS on U87MG cells (FAP on the cell surface), His-tag detected with Penta-His AF647 conjugate, median fluorescence intensity
Experimental: In order to determine whether the fusion of a biologically active molecule to a FAP-specific ankyrin repeat domain affects the ability of the molecule to specifically recognize and bind to FAP expressed on the surface of cells, the binding of selected ankyrin repeat fusion proteins to FAP-expressing cells was tested. U87 MG cells and WI38 cells are known to express FAP on the cell surface and they were chosen as representative cells for these experiments. FAP expression on the U87 MG and WI38 cells was confirmed by FACS analysis (data not shown).
Using multi-well plates, 40,000 cells (either U87MG or WI38) were added per well in 50 μl of PBS. 50 μl of appropriate dilutions (2× dilution steps) of ankyrin repeat fusion protein (DARPin® protein #40 or DARPin® protein #41) was then added to the cells and incubated for 30 minutes on ice. After the ankyrin repeat fusion protein-binding reaction, cells were washed twice with PBS. Direct immunofluorescent detection of the His-tagged ankyrin repeat fusion proteins using Penta-His AF647 conjugate (QIAgen) and determination of live cells using LIVE/DEAD™ Fixable Green Dead Cell Stain Kit (ThermoFisher) were then performed together in one step. […] Acquisition and FACS analysis, including the determination of median fluorescence intensity (MFI), were done within 5 days after staining using an AttuneNxT instrument. […]

- EC50 (read off the curve): ~2 nM
B1: DARPin® protein #41 (designed binder)
chain: MRGSHHHHHHGSDLGKKLLEAARAGQDDEVRELLKAGADVNAKDYFSHTPLHLAARNGHLKIVEVLLKAGADVNAKDFAGKTPLHLAANEGHLEIVEVLLKAGADVNAQDIFGKTPADIAADAGHEDIAEVLQKAAGSPTPTPTTPTPTPTTPTPTPTGSDLGEKLLVAALYGQDDEVRILLAAGADVNAKDQWGLTPLHKAALQGHLEIVEVLLKAGADVNAKDERGHTPLHWAARFGHLEIVEVLLKAGADVNAQDQKGYTPADLAALWGHEDIAEVLQKAA
notes: Fusion of a serum albumin-specific and a FAP-specific ankyrin repeat domain
